Results as given in article PMC3098871, “High Throughput Determination of TGFβ1/SMAD3 Targets in A549 Lung Epithelial Cells”.

Target: SMAD3 (UniProt P84022 1-425)
Experiment: EMSA; poly(dI-dC) 0.25 mg/mL; two complexes, partially abolished by unlabeled probe (40 and 200 ng); 20% glycerol, 5 mM MgCl2, 2.5 mM EDTA, 25 mM DTT, 200 mM NaCl, 50 mM Tris-HCl pH 7.6, 0.25 mg/mL poly(dI-dC), 20 min at room temperature; 6% native PAGE
Settings: protein: commercial; label: 5'-Cy5 on strand 1; blunt

Sequence of SMAD3 (P84022 whole entry): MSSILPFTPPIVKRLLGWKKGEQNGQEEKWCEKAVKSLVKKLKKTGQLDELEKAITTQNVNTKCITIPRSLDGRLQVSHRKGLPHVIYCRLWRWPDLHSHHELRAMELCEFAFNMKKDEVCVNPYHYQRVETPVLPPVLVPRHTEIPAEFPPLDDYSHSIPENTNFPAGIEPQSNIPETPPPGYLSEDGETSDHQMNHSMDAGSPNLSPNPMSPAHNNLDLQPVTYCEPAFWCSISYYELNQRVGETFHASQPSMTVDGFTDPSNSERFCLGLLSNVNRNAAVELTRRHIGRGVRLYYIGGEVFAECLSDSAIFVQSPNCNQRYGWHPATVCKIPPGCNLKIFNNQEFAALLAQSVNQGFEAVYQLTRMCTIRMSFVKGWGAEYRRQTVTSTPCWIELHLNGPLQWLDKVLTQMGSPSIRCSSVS

B1: FOXA2 promoter probe (-42 to -19) (dsDNA)
DNA 1: GATTGCTGGTCGTTTGTTGTGGCT
DNA 2: AGCCACAACAAACGACCAGCAATC
binding result: binds
